*: point of attachment. Dansyl = CN(C)c1cccc2c(S(=O)(=O)*)cccc12
Experiments:
[1] = molecular target: T1, collagen; assay: microplate fluorescence binding assay on collagen-coated wells, binding curve fitted to the data of FIGURE 4
T1 construct: also called collagen surface; collagen-treated well
Source text: Figure 4: FIG. 4. Binding of dansyl-modified peptide SILY to collagen measured in 96-well high-binding plate (black with a clear bottom (Costar)). PBS, buffer only; BSA, BSA-treated well; Collagen, collagen-treated well. Fluorescence readings were taken on an M5 Spectramax Spectrophotometer (Molecular Devices) at excitation/emission wavelengths of 335 nm/490 nm, respectively. Figure 5: FIG. 5. Collagen-dansyl-modified peptide SILY binding curve derived from fluorescence data described in FIG. 4. Figure 6: FIG. 6. A schematic description of the reagent, 3-(2-pyridyldithio)propionyl hydrazide (PDPH), and the chemistry of the two-step conjugation of a cysteine-containing peptide with an oxidized glycosylaminoglycoside showing the release of 2-pyridylthiol in the final step.
Binding assays were done in a 96-well high-binding plate, black with a clear bottom (Costar). Collagen was compared to untreated wells and BSA coated wells. Collagen and BSA were immobilized at 37° C. for 1 hr by incubating 90 µL/well at concentrations of 2 mg/mL in 10 mM HCl and 1×PBS, respectively. Each well was washed 3× with 1×PBS after incubating. Z-SILY was dissolved in 1×PBS at concentrations from 100 µM to 10 nM in 10-fold dilutions. […] Fluorescence readings were taken on an M5 Spectramax Spectrophotometer (Molecular Devices) at excitation/emission wavelengths of 335 nm/490 nm respectively.

[2] = molecular target: T1, collagen; assay: fluorescence plate binding assay; collagen coated on 96-well high-binding plate, Z-SILY 100 µM to 10 nM, ex/em 335/490 nm; from equilibrium binding
Method: Binding assays were done in a 96-well high-binding plate, black with a clear bottom (Costar). Collagen was compared to untreated wells and BSA coated wells. Collagen and BSA were immobilized at 37° C. for 1 hr by incubating 90 µL/well at concentrations of 2 mg/mL in 10 mM HCl and 1×PBS, respectively. Each well was washed 3× with 1×PBS after incubating. Z-SILY was dissolved in 1×PBS at concentrations from 100 µM to 10 nM in 10-fold dilutions. Wells were incubated for 30 min at 37° C. and rinsed 3× with PBS and then filled with 90 µL of 1×PBS. Fluorescence readings were taken on an M5 Spectramax Spectrophotometer (Molecular Devices) at excitation/emission wavelengths of 335 nm/490 nm respectively.

- EC50 (read off the curve) [1]: ~900 nM
- Kd [2]: 860 nM
B1: Dansyl-GRRANAALKAGELYKSILYGC (peptide)
peptide: Dansyl-GRRANAALKAGELYKSILYGC-NH2
notes: Fluorescently labelled version of SILY; also called Z-SILY; ZSILY

— US8846003 (PURDUE RESEARCH FOUNDATION, dated 2014)
